Measured values taken from patent US12173349B2, “Lung protease nanosensors and uses thereof” (Massachusetts Institute of Technology, priority 2018, dated 2024).
Primed or numbered codes have the meaning given here. Where no end group is shown, it is not given here. FAM = carboxyfluorescein fluorophore label; 5FAM′ = 5-carboxyfluorescein

Tests used:
PA01 supernatant = assay: cleavage of FRET-paired substrates by bacterial supernatant; type: biochemical, Pseudomonas aeruginosa; settings: PA01 culture supernatant, fluorescence change at 30 minutes
Description: (§1) The specificity of LAS and ELA for P. aeruginosa cleavage was tested by collecting supernatants from PA01 or Staphylococcus aureus cultures and incubating them with FRET-paired substrates LAS-Q and ELA-Q in 384 well plates. […] To investigate whether the LAS and ELA substrates are also susceptible to cleavage by host proteases, each was incubated with recombinant mouse proteases.
(§2) Supernatant from PA01 and S. aureus were collected and added to substrates in 384 well plates and dequenching of FAM was monitored at 37° C. (Tecan). Fluorescence change at 30 minutes was reported. For recombinant protease assays, enzyme was added to the substrates in enzyme-specific buffer (MMP7 & 9 buffer: 50 mM Tris, 150 mM NaCl, 5 mM CaCl2), […], pH 7.5; Thrombin: PBS; NE: 100 mM HEPES, 500 mM NaCl, 0.05% Tween 20) in a 384 well plate for time-lapse fluorimetry to measure dequenching at 37° C. (Tecan).

[1] = tested on: P. aeruginosa clinical isolate strains; assay: cleavage of FRET-paired substrates by clinical isolate supernatants; type: biochemical, Pseudomonas aeruginosa; settings: five clinical isolate strains
Description: P. aeruginosa strains isolated from de-identified clinical samples were generously provided by Dr. Deborah Hung, MD, PhD (Massachusetts General Hospital). Cultures of each were grown in LB broth overnight, then were subcultured in fresh LB and each strain grown to OD-matched mid log phase (OD600˜0.5). Supernatants were collected by centrifugation and substrate cleavage was monitored as described above.

MMP7 = target: T1, MMP7 (Mus musculus, UniProt Q10738); assay: recombinant host protease cleavage assay; type: biochemical
T1 sequence (Q10738 95-264): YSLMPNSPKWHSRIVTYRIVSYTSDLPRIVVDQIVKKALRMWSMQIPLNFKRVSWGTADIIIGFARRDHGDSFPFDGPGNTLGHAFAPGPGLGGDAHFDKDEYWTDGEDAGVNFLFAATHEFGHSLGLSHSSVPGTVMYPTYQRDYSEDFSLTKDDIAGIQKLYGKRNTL
Description: as §1, §2

thrombin = thrombin (Mus musculus, UniProt P19221); assay: recombinant host protease cleavage assay; type: biochemical
Description: as §1, §2

MMP13 = MMP13 (Mus musculus, UniProt P33435); assay: recombinant host protease cleavage assay; type: biochemical
Description: as §1, §2

[2] = urinary filtration of mass-encoded free reporters after IT or IV administration; type: in vivo, mice; settings: doses 2.5 ng to 25 ng, urine at 1 hour
Description: To enable detection of a broad spectrum of disease-associated proteases in vivo, the 14 peptides of the LUAD substrate panel were appended with mass-encoded reporters (PP1-14; Table 3). Following substrate proteolysis, the reporters diffuse away from the nanoparticle scaffold and are sized so as to be able to efficiently cross into the bloodstream, where they can be concentrated into the urine by glomerular filtration (FIG. 1B). As previously described (Kwong et al., Nat Biotechnol 31, 63-70, 2013), variable labeling of the 14-mer Glu-Fibrinopeptide B (Glu-Fib) with stable isotope-labeled amino acids was used to uniquely barcode each of 14 peptide substrates. Multiple reaction monitoring via a liquid chromatography triple quadrupole mass spectrometer (LC-MS/MS) enables quantitative assessment of peptide-liberated urinary reporter concentration within a broad linear range (1-1000 ng/mL, FIG. 8A). Using mass-encoded free reporters, the filtration of Glu-Fib reporters into the urine after IT or IV administration was assessed and strong linearity of the MS assay for both routes of delivery for input doses between 2.5 ng and 25 ng (R^2=1.00, FIG. 8B) was found for both routes of delivery (sloperIT=0.075 ng^−1, slopeIV=0.077 ng^−1; FIG. 8B).
Liquid chromatography/tandem mass spectrometry was performed by Syneos Health (Princeton, NJ) using a Sciex 6500 triple quadrupole instrument. […]

recombinant human MMP13 = target: T2, recombinant human MMP13 (Homo sapiens, UniProt P45452); assay: cleavage of aerosolized fluorogenic nanosensor by MMP13; type: biochemical; settings: 50 nM MMP13, 5 μM nanosensor
T2 construct: purchased Enzo
Description: As a step toward developing a more clinically relevant delivery method, particle durability and biodistribution after aerosolization were also characterized.
Analysis of nanoparticle stability and protease cleavage susceptibility following aerosolization used […] 250 μM PEG-840 kDa scaffold (FIGS. 22B-22E) or 5 μM PPQ5 PEG-840 kDa nanosensors (FIG. 22F). Protease cleavage assays of aerosolized nanoparticles used 50 nM of recombinant human MMP13 (Enzo).

LAS-Q: FRET-paired (FAM fluorophore, Dabcyl quencher) substrate for P. aeruginosa protease LasA; includes SEQ ID NO: 45 (GLGGGAGK(FAM); also: Dabcyl quencher, site not given here)
cleavage by supernatant (fluorescence signal) (PA01 supernatant): greater selectivity for cleavage of LAS-Q by PA01 | strains whose supernatant gave significant cleavage [1]: 3 of the 5 strains | cleavage by recombinant protease (MMP7): resist cleavage | cleavage by recombinant protease (thrombin): resist cleavage | cleavage by recombinant protease (MMP13): resist cleavage

Glu-Fib reporters: mass-encoded free reporters, stable isotope-labeled variants of 14-mer Glu-Fibrinopeptide B
slope of urinary reporter signal versus input dose ([2]; IT administration): 0.075 ng⁻¹ | slope of urinary reporter signal versus input dose ([2]; IV administration): 0.077 ng⁻¹

PEG-PPQ5: fluorogenic nanosensor, PPQ5 on PEG-840 kDa ({5FAM′}-GGPLGVRGKKC; not fully specified (residue 10); printed as GGPLGVRGKK(CPQ2)-PEG2-C; also: on PEG-840 kDa carrier, site not given here)
sensitivity to in vitro cleavage pre- versus post-aerosolization (recombinant human MMP13): equally sensitive
